# Laboratory results taken from publication PMC11306496, “Myosin Va-dependent Transport of NMDA Receptors in Hippocampal Neurons” (Neuroscience Bulletin, 2024).
# B1: NMDA receptor subunit GluN2A (receptor)
# chain: not shown
# notes: NMDA receptor subunit GluN2A, rat, endogenous in hippocampus; source: endogenous, rat hippocampal homogenate (slices or cultured hippocampal neurons)
# Target: T1, myosin Va (rat (endogenous in hippocampus), UniProt Q9QYF3 1-1828)
# T1 construct: myosin Va, rat, endogenous in hippocampus; also called MyoVa; source: endogenous, rat hippocampal homogenate
# T1 sequence (Q9QYF3 whole entry): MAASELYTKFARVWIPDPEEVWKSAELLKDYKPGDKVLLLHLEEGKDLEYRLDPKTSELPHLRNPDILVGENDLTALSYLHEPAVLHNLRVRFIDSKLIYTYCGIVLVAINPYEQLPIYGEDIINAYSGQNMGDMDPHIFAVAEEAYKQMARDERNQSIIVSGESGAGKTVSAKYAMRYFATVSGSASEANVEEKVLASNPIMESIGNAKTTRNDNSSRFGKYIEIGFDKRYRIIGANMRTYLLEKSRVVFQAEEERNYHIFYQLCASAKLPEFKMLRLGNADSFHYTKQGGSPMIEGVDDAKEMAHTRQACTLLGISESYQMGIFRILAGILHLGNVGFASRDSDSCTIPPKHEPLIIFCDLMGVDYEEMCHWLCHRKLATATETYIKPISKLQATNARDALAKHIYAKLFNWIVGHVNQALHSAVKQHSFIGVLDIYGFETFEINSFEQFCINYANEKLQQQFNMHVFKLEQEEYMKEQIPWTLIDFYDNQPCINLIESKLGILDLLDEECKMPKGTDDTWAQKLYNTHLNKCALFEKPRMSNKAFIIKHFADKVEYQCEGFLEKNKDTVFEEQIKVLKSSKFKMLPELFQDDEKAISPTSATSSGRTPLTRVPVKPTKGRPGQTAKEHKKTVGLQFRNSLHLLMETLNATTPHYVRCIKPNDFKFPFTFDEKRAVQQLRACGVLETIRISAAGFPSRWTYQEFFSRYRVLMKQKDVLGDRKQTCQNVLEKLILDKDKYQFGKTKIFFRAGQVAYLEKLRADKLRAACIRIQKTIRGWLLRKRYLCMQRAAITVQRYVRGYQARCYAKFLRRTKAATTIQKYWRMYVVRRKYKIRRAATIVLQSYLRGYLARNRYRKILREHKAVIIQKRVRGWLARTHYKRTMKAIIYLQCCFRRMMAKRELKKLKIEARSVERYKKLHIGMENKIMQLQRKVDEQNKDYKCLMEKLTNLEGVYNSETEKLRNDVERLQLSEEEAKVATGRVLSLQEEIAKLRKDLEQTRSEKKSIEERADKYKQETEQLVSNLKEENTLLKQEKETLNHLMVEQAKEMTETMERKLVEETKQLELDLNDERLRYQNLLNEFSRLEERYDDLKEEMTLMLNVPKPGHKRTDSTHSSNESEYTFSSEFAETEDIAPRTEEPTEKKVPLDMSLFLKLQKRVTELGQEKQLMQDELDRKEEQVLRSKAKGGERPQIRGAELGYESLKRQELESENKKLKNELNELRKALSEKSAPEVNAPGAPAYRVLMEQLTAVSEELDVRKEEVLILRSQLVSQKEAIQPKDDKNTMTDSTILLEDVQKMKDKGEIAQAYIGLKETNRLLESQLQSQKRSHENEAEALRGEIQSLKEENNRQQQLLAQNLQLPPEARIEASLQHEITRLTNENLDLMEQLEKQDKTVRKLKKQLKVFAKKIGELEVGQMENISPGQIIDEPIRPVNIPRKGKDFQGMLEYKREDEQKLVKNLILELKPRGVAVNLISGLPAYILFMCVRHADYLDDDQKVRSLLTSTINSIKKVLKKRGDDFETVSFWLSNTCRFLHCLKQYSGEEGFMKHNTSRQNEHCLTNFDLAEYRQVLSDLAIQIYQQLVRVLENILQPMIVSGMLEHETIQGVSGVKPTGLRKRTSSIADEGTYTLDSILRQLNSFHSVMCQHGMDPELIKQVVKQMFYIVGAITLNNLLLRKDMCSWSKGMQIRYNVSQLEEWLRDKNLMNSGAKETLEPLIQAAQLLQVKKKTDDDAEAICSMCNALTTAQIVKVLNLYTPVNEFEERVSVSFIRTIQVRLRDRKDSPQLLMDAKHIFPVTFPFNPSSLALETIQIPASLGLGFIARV
# Experiment: co-IP; total rat hippocampal lysates with primary antibody and Protein A/G agarose, 4°C; buffer pH 7.4, 0.05 mol/L HEPES, 0.15 mol/L NaCl, 0.5% NP-40, 1% Triton X-100; non-immune IgG as control; slices untreated or treated with PMA (0.5 umol/L, 10 min) and/or AIP (1 umol/L)
# Conditions: partners not purified
binder,measurement,value
B1,"co-IP signal with PMA, normalised to control (IP with anti-MyoVa)",1.59 fold of control
